Paper PMC3855715, “Two high-resolution structures of the human E3 ubiquitin ligase Siah1” (Acta Crystallographica Section F, 2013)

T1: Siah1 (construct used for the complex with SIP, limits not stated) (human, UniProt Q8IUQ4 1-282)
T1 construct: Siah1 (seven-in-absentia homologue 1), human, UniProt Q8IUQ4
T1 sequence (looked up): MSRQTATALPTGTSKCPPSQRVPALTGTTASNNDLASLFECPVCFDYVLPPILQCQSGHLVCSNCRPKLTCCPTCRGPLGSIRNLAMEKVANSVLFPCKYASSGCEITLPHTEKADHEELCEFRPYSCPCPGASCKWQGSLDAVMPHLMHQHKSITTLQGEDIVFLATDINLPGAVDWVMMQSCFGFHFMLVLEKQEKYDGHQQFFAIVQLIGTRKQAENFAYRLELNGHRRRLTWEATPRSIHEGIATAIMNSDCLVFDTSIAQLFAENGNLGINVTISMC


Columns and labels:
[1] = target: the molecule itself; test: SEC; size-exclusion chromatography during purification of Siah1 91-282; single species of approximate mass 39 kDa
[2] = target: T1, Siah1 (construct used for the complex …); test: SEC; size-exclusion gel chromatography of Siah1 with full-length SIP; complex purified; settings: both partners purified

stoichiometry N [2] | Binder | stoichiometry N [1]
 | human Siah1 without the RING domain (residues 91-282) (domain or fragment, additional methionine at the N-terminus, a cloning artifact (seen in chain A of the 1.95 A structure); also called seven-in-absentia homologue 1; truncated Siah1; source: E. coli, purified as described previously (Rimsa et al., 2013)) MANSVLFPCKYASSGCEITLPHTEKADHEELCEFRPYSCPCPGASCKWQGSLDAVMPHLMHQHKSITTLQGEDIVFLATDINLPGAVDWVMMQSCFGFHFMLVLEKQEKYDGHQQFFAIVQLIGTRKQAENFAYRLELNGHRRRLTWEATPRSIHEGIATAIMNSDCLVFDTSIAQLFAENGNLGINVTISMC | 2
1 | full-length human SIP (Siah-interacting protein) (natural protein, UniProt Q9HB71 1-228, looked up) MASEELQKDLEEVKVLLEKATRKRVRDALTAEKSKIETEIKNKMQQKSQKKAELLDNEKPAAVVAPITTGYTVKISNYGWDQSDKFVKIYITLTGVHQVPTENVQVHFTERSFDLLVKNLNGKSYSMIVNNLLKPISVEGSSKKVKTDTVLILCRKKVENTRWDYLTQVEKECKEKEKPSYDTETDPSEGLMNVLKKIYEDGDDDMKRTINKAWVESREKQAKGDTEF | 
